{"source": "paper PMC4301630", "about": "“Dynamic Growth and Shrinkage Govern the pH Dependence of RecA Filament Stability” (PLoS ONE, 2015)", "proteins": {"B1": {"name": "RecA protein (wild type) (natural protein, UniProt P0A7G6 1-353, looked up)", "chain": "MAIDENKQKALAAALGQIEKQFGKGSIMRLGEDRSMDVETISTGSLSLDIALGAGGLPMGRIVEIYGPESSGKTTLTLQVIAAAQREGKTCAFIDAEHALDPIYARKLGVDIDNLLCSQPDTGEQALEICDALARSGAVDVIVVDSVAALTPKAEIEGEIGDSHMGLAARMMSQAMRKLAGNLKQSNTLLIFINQIRMKIGVMFGNPETTTGGNALKFYASVRLDIRRIGAVKEGENVVGSETRVKVVKNKIAAPFKQAEFQILYGEGINFYGELVDLGVKEKLIEKAGAWYSYKGEKIGQGKANATAWLKDNPETAKEIEKKVRELLLSNPNSTPDFSVDDSEGVAETNEDF", "notes": "RecA protein, wild type, bought from New England Biolabs; Forms helical filaments of many monomers on single-stranded DNA with ATP or ATPγS; the number of copies in the filament is not fixed; also called wild type RecA; source: bought: New England Biolabs, used without further purification"}}, "molecular_target": "the molecule itself", "test": "single-molecule FRET (Cy3 and Cy5 on the DNA, TIRF microscopy); partial duplex DNA with a 60 nt 3' single-stranded overhang immobilised on a PEG-coated quartz slide; dyes 10 nt apart at the 5' side of the overhang report monomers joining and leaving the 5' end of the RecA filament; 1 uM RecA (0.5 uM RecAΔC17), 1 mM ATP, 10 mM Mg(OAc)2, 100 mM NaOAc, 10 mM Tris-OAc, Mes or Mops, pH 6.0 to 8.0, room temperature; …"}
{"protein": "B1", "values": [{"measurement": "binding result", "value": "binds"}]}
